What was measured:
[1] = biological target: purified vaccine protein with HA from influenza A/PR/8/1934 (H1N1), without the C-terminal trimerization domain (influenza A/PR/8/1934 (H1N1)) (UniProt P03452); experiment: native gel or EMSA
[2] = biological target: purified vaccine protein with HA from influenza A/PR/8/1934 (H1N1), without the C-terminal trimerization domain (influenza A/PR/8/1934 (H1N1)) (UniProt P03452); experiment: SEC

purified vaccine protein with HA from influenza A/PR/8/1934 (H1N1), without the C-terminal trimerization domain (from UniProt P03452 18-541)
stoichiometry N [1]: 3
stoichiometry N [2]: 3

Source: publication PMC9972960
